Paper PMC7721647, “The Human RNA Helicase DDX21 Presents a Dimerization Interface Necessary for Helicase Activity” (iScience, 2020)
Blank lines part the entries; values can stand above or below the molecule they belong to.

Key:
DDX21_(Core-DD) (human) [1] = assay: SEC-MALS; purified DDX21 constructs alone; conditions in the Transparent Methods (not shown)
DDX21_(Core-DD) (human) [2] = assay: SEC-SAXS; SAXS coupled to size exclusion chromatography; oligomeric state from SAXS molecular weight estimates (Table S3)
DDX21_(Core-DD) (human) [3] = assay: mass photometry; purified proteins alone in the low nanomolar range (30 and 15 nM); monomer to dimer
DDX21Fl = biological target: T1, DDX21Fl (human, UniProt Q9NR30 1-783); assay: fluorescence polarization; FP: 50 mM Tris pH 7.5, 50 mM KCl, 5 mM MgCl2, no ATP; Hill-slope fit; temperature not given in the material; details: protein: recombinant; tags: N-terminal Trx-His6, cut with thrombin; chain copies: 2; label: 5'-FAM on RNA; R-loop: 15-mer RNA on DNA oligo 1; DNA duplex arms with unpaired DNA oligo 2 loop
T1 sequence: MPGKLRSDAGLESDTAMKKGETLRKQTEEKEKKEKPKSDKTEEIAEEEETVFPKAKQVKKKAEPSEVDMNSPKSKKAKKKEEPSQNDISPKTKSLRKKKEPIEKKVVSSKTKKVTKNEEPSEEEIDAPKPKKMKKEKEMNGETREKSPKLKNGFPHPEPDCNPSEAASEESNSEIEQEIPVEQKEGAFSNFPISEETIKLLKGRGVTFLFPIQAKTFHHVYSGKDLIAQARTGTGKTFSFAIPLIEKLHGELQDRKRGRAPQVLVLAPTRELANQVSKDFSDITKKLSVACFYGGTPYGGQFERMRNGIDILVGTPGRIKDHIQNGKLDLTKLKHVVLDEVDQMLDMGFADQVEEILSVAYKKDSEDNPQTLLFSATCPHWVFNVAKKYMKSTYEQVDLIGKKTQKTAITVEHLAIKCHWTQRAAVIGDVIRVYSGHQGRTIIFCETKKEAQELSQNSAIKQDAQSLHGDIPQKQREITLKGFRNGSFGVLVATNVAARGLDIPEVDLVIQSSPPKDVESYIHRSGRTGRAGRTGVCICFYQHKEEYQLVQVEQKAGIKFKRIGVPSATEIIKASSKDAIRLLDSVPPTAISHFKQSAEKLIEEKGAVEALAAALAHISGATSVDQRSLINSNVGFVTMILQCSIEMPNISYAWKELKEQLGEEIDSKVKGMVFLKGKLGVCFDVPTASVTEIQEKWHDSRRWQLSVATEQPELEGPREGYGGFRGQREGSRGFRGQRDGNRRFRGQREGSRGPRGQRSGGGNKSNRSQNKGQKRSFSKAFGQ

[4] = biological target: the molecule itself; assay: cell-based or functional assay
[5] = biological target: the molecule itself; assay: SEC-SAXS; SAXS coupled to size exclusion chromatography; oligomeric state from SAXS molecular weight estimates (Table S3)
[6] = biological target: the molecule itself; assay: mass photometry; DDX21Fl-R-loop complex at 30 nM
[7] = biological target: the molecule itself; assay: SEC-MALS; purified DDX21 constructs alone; conditions in the Transparent Methods (not shown)

stoichiometry N (DDX21_(Core-DD) (human) [1]): 2 | stoichiometry N (DDX21_(Core-DD) (human) [2]): 2 | stoichiometry N (DDX21_(Core-DD) (human) [3]): 2
Molecule: DDX21_(Core-DD) (domain or fragment)

B1: R-loop (mixed)
RNA: GUUUCGGAUCGACGC
DNA 1: GTACCCGGGGATCCTCTAGAGTCGAGCGTCGATCCGAAACTTGGCACTGGCCGTCGTTTTACAAC
DNA 2: GTTGTAAAACGACGGCCAGTGCCTTTTCCCAGCCTCAATCTCATCACTCTAGAGGATCCCCGGGTAC
Kd (DDX21Fl): 9.2 ± 0.7 nM

B2: DDX21ΔN monomer mutant (domain or fragment)
chain: GAFSNFPISEETIKLLKGRGVTFLFPIQAKTFHHVYSGKDLIAQARTGTGKTFSFAIPLIEKLHGELQDRKRGRAPQVLVLAPTRELANQVSKDFSDITKKLSVACFYGGTPYGGQFERMRNGIDILVGTPGRIKDHIQNGKLDLTKLKHVVLDEVDQMLDMGFADQVEEILSVAYKKDSEDNPQTLLFSATCPHWVFNVAKKYMKSTYEQVDLIGKKTQKTAITVEHLAIKCHWTQRAAVIGDVIRVYSGHQGRTIIFCETKKEAQELSQNSAIKQDAQSLHGDIPQKQREITLKGFRNGSFGVLVATNVAARGLDIPEVDLVIQSSPPKDVESYIHRSGRTGRAGRTGVCICFYQHKEEYQLVQVEQKAGIKFKRIGVPSATEIIKASSKDAIRLLDSVPPTAISHFKQSAEKLIEEKGAVEARRRRRRHISGATSVDQRSLINSNVGFVTMILQCSIEMPNISYAWKELKEQLGEEIDSKVKGMVFLKGKLGVCFDVPTASVTEIQEKWHDSRRWQLSVATEQPELEGPREGYGGFRGQREGSRGFRGQRDGNRRFRGQREGSRGPRGQRSGGGNKSNRSQNKGQKRSFSKAFGQ
dsRNA unwinding (in vitro helicase assay with RNase T1), activity relative to the dimeric protein [4]: ~50%

B3: DDX21ΔN (domain or fragment, human, UniProt Q9NR30 186-783, looked up)
chain: GAFSNFPISEETIKLLKGRGVTFLFPIQAKTFHHVYSGKDLIAQARTGTGKTFSFAIPLIEKLHGELQDRKRGRAPQVLVLAPTRELANQVSKDFSDITKKLSVACFYGGTPYGGQFERMRNGIDILVGTPGRIKDHIQNGKLDLTKLKHVVLDEVDQMLDMGFADQVEEILSVAYKKDSEDNPQTLLFSATCPHWVFNVAKKYMKSTYEQVDLIGKKTQKTAITVEHLAIKCHWTQRAAVIGDVIRVYSGHQGRTIIFCETKKEAQELSQNSAIKQDAQSLHGDIPQKQREITLKGFRNGSFGVLVATNVAARGLDIPEVDLVIQSSPPKDVESYIHRSGRTGRAGRTGVCICFYQHKEEYQLVQVEQKAGIKFKRIGVPSATEIIKASSKDAIRLLDSVPPTAISHFKQSAEKLIEEKGAVEALAAALAHISGATSVDQRSLINSNVGFVTMILQCSIEMPNISYAWKELKEQLGEEIDSKVKGMVFLKGKLGVCFDVPTASVTEIQEKWHDSRRWQLSVATEQPELEGPREGYGGFRGQREGSRGFRGQRDGNRRFRGQREGSRGPRGQRSGGGNKSNRSQNKGQKRSFSKAFGQ
notes: human DDX21 without the N-terminal 185 amino acids (start 186 worked out from this statement); source: Transparent Methods
stoichiometry N [5]: 2

B4: DDX21Fl monomer mutant (enzyme)
chain: MPGKLRSDAGLESDTAMKKGETLRKQTEEKEKKEKPKSDKTEEIAEEEETVFPKAKQVKKKAEPSEVDMNSPKSKKAKKKEEPSQNDISPKTKSLRKKKEPIEKKVVSSKTKKVTKNEEPSEEEIDAPKPKKMKKEKEMNGETREKSPKLKNGFPHPEPDCNPSEAASEESNSEIEQEIPVEQKEGAFSNFPISEETIKLLKGRGVTFLFPIQAKTFHHVYSGKDLIAQARTGTGKTFSFAIPLIEKLHGELQDRKRGRAPQVLVLAPTRELANQVSKDFSDITKKLSVACFYGGTPYGGQFERMRNGIDILVGTPGRIKDHIQNGKLDLTKLKHVVLDEVDQMLDMGFADQVEEILSVAYKKDSEDNPQTLLFSATCPHWVFNVAKKYMKSTYEQVDLIGKKTQKTAITVEHLAIKCHWTQRAAVIGDVIRVYSGHQGRTIIFCETKKEAQELSQNSAIKQDAQSLHGDIPQKQREITLKGFRNGSFGVLVATNVAARGLDIPEVDLVIQSSPPKDVESYIHRSGRTGRAGRTGVCICFYQHKEEYQLVQVEQKAGIKFKRIGVPSATEIIKASSKDAIRLLDSVPPTAISHFKQSAEKLIEEKGAVEARRRRRRHISGATSVDQRSLINSNVGFVTMILQCSIEMPNISYAWKELKEQLGEEIDSKVKGMVFLKGKLGVCFDVPTASVTEIQEKWHDSRRWQLSVATEQPELEGPREGYGGFRGQREGSRGFRGQRDGNRRFRGQREGSRGPRGQRSGGGNKSNRSQNKGQKRSFSKAFGQ
dsRNA unwinding (in vitro helicase assay with RNase T1), activity relative to the dimeric protein [4]: ~50%

B5: full-length DDX21 (DDX21Fl) with uncleaved affinity tag (enzyme, human, UniProt Q9NR30 1-783, looked up)
chain: MPGKLRSDAGLESDTAMKKGETLRKQTEEKEKKEKPKSDKTEEIAEEEETVFPKAKQVKKKAEPSEVDMNSPKSKKAKKKEEPSQNDISPKTKSLRKKKEPIEKKVVSSKTKKVTKNEEPSEEEIDAPKPKKMKKEKEMNGETREKSPKLKNGFPHPEPDCNPSEAASEESNSEIEQEIPVEQKEGAFSNFPISEETIKLLKGRGVTFLFPIQAKTFHHVYSGKDLIAQARTGTGKTFSFAIPLIEKLHGELQDRKRGRAPQVLVLAPTRELANQVSKDFSDITKKLSVACFYGGTPYGGQFERMRNGIDILVGTPGRIKDHIQNGKLDLTKLKHVVLDEVDQMLDMGFADQVEEILSVAYKKDSEDNPQTLLFSATCPHWVFNVAKKYMKSTYEQVDLIGKKTQKTAITVEHLAIKCHWTQRAAVIGDVIRVYSGHQGRTIIFCETKKEAQELSQNSAIKQDAQSLHGDIPQKQREITLKGFRNGSFGVLVATNVAARGLDIPEVDLVIQSSPPKDVESYIHRSGRTGRAGRTGVCICFYQHKEEYQLVQVEQKAGIKFKRIGVPSATEIIKASSKDAIRLLDSVPPTAISHFKQSAEKLIEEKGAVEALAAALAHISGATSVDQRSLINSNVGFVTMILQCSIEMPNISYAWKELKEQLGEEIDSKVKGMVFLKGKLGVCFDVPTASVTEIQEKWHDSRRWQLSVATEQPELEGPREGYGGFRGQREGSRGFRGQRDGNRRFRGQREGSRGPRGQRSGGGNKSNRSQNKGQKRSFSKAFGQ
notes: human DEAD-box RNA helicase DDX21, full length; Form used in mass photometry; also called wild-type protein; source: Transparent Methods
stoichiometry N [6]: 2

B6: full-length DDX21 (DDX21Fl), affinity tag cleaved (enzyme, human, UniProt Q9NR30 1-783, looked up)
chain: MPGKLRSDAGLESDTAMKKGETLRKQTEEKEKKEKPKSDKTEEIAEEEETVFPKAKQVKKKAEPSEVDMNSPKSKKAKKKEEPSQNDISPKTKSLRKKKEPIEKKVVSSKTKKVTKNEEPSEEEIDAPKPKKMKKEKEMNGETREKSPKLKNGFPHPEPDCNPSEAASEESNSEIEQEIPVEQKEGAFSNFPISEETIKLLKGRGVTFLFPIQAKTFHHVYSGKDLIAQARTGTGKTFSFAIPLIEKLHGELQDRKRGRAPQVLVLAPTRELANQVSKDFSDITKKLSVACFYGGTPYGGQFERMRNGIDILVGTPGRIKDHIQNGKLDLTKLKHVVLDEVDQMLDMGFADQVEEILSVAYKKDSEDNPQTLLFSATCPHWVFNVAKKYMKSTYEQVDLIGKKTQKTAITVEHLAIKCHWTQRAAVIGDVIRVYSGHQGRTIIFCETKKEAQELSQNSAIKQDAQSLHGDIPQKQREITLKGFRNGSFGVLVATNVAARGLDIPEVDLVIQSSPPKDVESYIHRSGRTGRAGRTGVCICFYQHKEEYQLVQVEQKAGIKFKRIGVPSATEIIKASSKDAIRLLDSVPPTAISHFKQSAEKLIEEKGAVEALAAALAHISGATSVDQRSLINSNVGFVTMILQCSIEMPNISYAWKELKEQLGEEIDSKVKGMVFLKGKLGVCFDVPTASVTEIQEKWHDSRRWQLSVATEQPELEGPREGYGGFRGQREGSRGFRGQRDGNRRFRGQREGSRGPRGQRSGGGNKSNRSQNKGQKRSFSKAFGQ
notes: human DEAD-box RNA helicase DDX21, full length; Tag state is told only for the SEC-MALS mass (cleaved); Construct details are in the Transparent Methods; also called nucleolar RNA helicase II/Guα; source: Transparent Methods
stoichiometry N [7]: 2
